For data set [1], the target named is T1, Ku70/Ku80 heterodimer, wild type (human, UniProt P12956;P13010 1-609;1-732). The experiment in a line: fluorescence polarization; re-reduced: 2 mM diamide then 5 mM DTT, probably nM; 50 mM Tris-HCl pH 7.8, 10 mM MgCl2, 50 mM NaCl (FP: plus 1 mM DTT, 0.5 ml; EMSA: 20 μl, 500 fmol DNA); oxidation 2 mM diamide 15 min on ice, re-reduction 5 mM DTT 15 min on ice; binding temperature not stated. To be noted: protein: recombinant; tags: His6 on Ku70; copies: 1;1; blunt.
T1 sequence (P12956 whole entry, chain 1 of 2): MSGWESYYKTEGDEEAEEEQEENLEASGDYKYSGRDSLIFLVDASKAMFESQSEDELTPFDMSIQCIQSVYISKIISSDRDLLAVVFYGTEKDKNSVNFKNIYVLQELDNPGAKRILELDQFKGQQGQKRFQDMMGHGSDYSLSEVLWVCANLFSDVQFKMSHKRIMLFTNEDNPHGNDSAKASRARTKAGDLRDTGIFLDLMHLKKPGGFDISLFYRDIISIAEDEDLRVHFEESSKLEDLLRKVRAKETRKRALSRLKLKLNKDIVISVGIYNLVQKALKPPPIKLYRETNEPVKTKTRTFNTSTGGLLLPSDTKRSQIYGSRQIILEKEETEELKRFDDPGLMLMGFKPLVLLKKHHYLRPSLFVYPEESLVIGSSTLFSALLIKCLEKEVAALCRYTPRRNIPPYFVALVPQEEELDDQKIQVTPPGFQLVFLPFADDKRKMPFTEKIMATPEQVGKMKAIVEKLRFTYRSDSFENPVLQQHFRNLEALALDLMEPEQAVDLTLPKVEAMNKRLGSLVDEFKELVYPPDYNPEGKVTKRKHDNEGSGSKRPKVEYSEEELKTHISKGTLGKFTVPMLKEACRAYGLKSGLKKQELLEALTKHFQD
T1 sequence (P13010 whole entry, chain 2 of 2): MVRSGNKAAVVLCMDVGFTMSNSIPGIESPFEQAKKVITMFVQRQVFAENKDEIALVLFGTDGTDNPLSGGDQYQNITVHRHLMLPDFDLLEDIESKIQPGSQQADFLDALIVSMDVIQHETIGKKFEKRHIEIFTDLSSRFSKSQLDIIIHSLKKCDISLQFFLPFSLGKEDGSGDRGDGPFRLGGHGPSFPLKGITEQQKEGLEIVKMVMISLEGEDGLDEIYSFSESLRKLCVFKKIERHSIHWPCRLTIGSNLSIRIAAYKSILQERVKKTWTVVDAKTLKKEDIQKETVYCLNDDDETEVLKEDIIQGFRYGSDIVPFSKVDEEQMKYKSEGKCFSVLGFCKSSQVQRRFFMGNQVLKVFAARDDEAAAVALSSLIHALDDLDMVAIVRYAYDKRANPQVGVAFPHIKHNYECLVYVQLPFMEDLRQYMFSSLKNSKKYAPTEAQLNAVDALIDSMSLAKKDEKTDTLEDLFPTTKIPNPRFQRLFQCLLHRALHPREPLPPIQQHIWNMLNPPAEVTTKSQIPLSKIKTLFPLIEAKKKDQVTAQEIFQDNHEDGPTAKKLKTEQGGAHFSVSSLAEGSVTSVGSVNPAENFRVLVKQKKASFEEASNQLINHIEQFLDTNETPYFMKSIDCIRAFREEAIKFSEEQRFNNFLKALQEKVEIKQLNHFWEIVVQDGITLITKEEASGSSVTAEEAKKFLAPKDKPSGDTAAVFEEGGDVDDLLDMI

In data set [2] the target is T1, Ku70/Ku80 heterodimer, wild type. Put plainly: fluorescence polarization; reduced (control), 1 mM DTT, 10 mM Mg2+, probably nM; 50 mM Tris-HCl pH 7.8, 10 mM MgCl2, 50 mM NaCl (FP: plus 1 mM DTT, 0.5 ml; EMSA: 20 μl, 500 fmol DNA); oxidation 2 mM diamide 15 min on ice, re-reduction 5 mM DTT 15 min on ice; binding temperature not stated. To be noted: protein: recombinant; tags: His6 on Ku70; copies: 1;1; blunt. (In general: In fluorescence polarisation assays a small probe gives low polarisation when free and higher when bound to something large.)

For data set [3], the target named is T2, Ku70/80ΔC (human, UniProt P12956;P13010 1-609;1-548). Described as above. Conditions: protein: recombinant; tags: His6 on Ku70; N-terminal His6 (pRSET B) also on Ku80ΔC per Methods; copies: 1;1; blunt.
T2 sequence (P12956 whole entry, stated change not applied, chain 1 of 2): as the sequence (P12956 whole entry, chain 1 of 2) above
T2 sequence (P13010 1-548, stated change not applied, chain 2 of 2): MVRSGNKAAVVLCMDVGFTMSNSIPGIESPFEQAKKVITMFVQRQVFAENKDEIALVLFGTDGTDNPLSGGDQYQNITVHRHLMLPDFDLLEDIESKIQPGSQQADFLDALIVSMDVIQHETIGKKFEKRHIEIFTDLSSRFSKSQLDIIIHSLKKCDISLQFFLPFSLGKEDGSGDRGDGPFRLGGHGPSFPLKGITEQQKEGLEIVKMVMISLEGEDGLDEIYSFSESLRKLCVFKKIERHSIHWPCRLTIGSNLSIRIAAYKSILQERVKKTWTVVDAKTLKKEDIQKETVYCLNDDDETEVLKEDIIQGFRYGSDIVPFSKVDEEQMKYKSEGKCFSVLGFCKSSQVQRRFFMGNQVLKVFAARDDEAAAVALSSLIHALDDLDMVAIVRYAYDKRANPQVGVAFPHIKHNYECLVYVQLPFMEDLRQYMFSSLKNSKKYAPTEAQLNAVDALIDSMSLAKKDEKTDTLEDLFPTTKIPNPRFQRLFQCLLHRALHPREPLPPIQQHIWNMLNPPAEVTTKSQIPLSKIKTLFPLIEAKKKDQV
Data set [4] deals with T1, Ku70/Ku80 heterodimer, wild type. The experiment in a line: EMSA; reduced (control), 10 mM Mg2+, titration was 0-150 nM so probably nM; 50 mM Tris-HCl pH 7.8, 10 mM MgCl2, 50 mM NaCl (FP: plus 1 mM DTT, 0.5 ml; EMSA: 20 μl, 500 fmol DNA); oxidation 2 mM diamide 15 min on ice, re-reduction 5 mM DTT 15 min on ice; binding temperature not stated. To be noted: protein: recombinant; tags: His6 on Ku70; copies: 1;1; label: 32P; blunt. (Mobility shift assays separate free from complexed probe on a gel.)

A further data set deals with Ku70/Ku80 C493S (human, UniProt P12956;P13010 1-609;1-732, C493S). Put plainly: EMSA; reduced; similar to wild type (data not shown); 50 mM Tris-HCl pH 7.8, 10 mM MgCl2, 50 mM NaCl (FP: plus 1 mM DTT, 0.5 ml; EMSA: 20 μl, 500 fmol DNA); oxidation 2 mM diamide 15 min on ice, re-reduction 5 mM DTT 15 min on ice; binding temperature not stated. Conditions: protein: recombinant; tags: His6 on Ku70; copies: 1;1; label: 32P; blunt.
Chain of Ku70/Ku80 C493S (P12956 whole entry, chain 1 of 2): as the sequence (P12956 whole entry, chain 1 of 2) above
Chain of Ku70/Ku80 C493S (P13010 whole entry C493S, chain 2 of 2): as the sequence (P13010 whole entry, chain 2 of 2) above, with C493S counted along it

A further data set addresses Ku70/Ku80 C493A (human, UniProt P12956;P13010 1-609;1-732, C493A). The experiment in a line: EMSA; reduced; near wild type; 50 mM Tris-HCl pH 7.8, 10 mM MgCl2, 50 mM NaCl (FP: plus 1 mM DTT, 0.5 ml; EMSA: 20 μl, 500 fmol DNA); oxidation 2 mM diamide 15 min on ice, re-reduction 5 mM DTT 15 min on ice; binding temperature not stated. Conditions: protein: recombinant; tags: His6 on Ku70; copies: 1;1; label: 32P; blunt.

The target in data set [5] is T2, Ku70/80ΔC. Put plainly: EMSA; reduced (control), 10 mM Mg2+, probably nM; 50 mM Tris-HCl pH 7.8, 10 mM MgCl2, 50 mM NaCl (FP: plus 1 mM DTT, 0.5 ml; EMSA: 20 μl, 500 fmol DNA); oxidation 2 mM diamide 15 min on ice, re-reduction 5 mM DTT 15 min on ice; binding temperature not stated. Conditions: protein: recombinant; tags: His6 on Ku70; N-terminal His6 (pRSET B) also on Ku80ΔC per Methods; copies: 1;1; label: 32P; blunt.

A word on the Kd: it is the constant that tells how readily two partners part at equilibrium.

Chain of Ku70/Ku80 C493A (P12956 whole entry, chain 1 of 2): as the sequence (P12956 whole entry, chain 1 of 2) above
Chain of Ku70/Ku80 C493A (P13010 whole entry C493A, chain 2 of 2): as the sequence (P13010 whole entry, chain 2 of 2) above, with C493A counted along it

B1: 30-bp duplex 30A/30C, fluorescein (polarization) (dsDNA)
DNA 1: CCCCTATCCTTTCCGCGTCCTTACTTCCCC
DNA 2: GGGGAAGTAAGGACGCGGAAAGGATAGGGG
For B1, the Kd in data set [1] came out at 31.4 ± 3 nM; in data set [2], 25.8 ± 2.3 nM; in the data set with Ku70/80ΔC [3], 25.7 ± 1.5 nM.

B2: 30-bp duplex 30A/30C (EMSA) (dsDNA)
DNA 1: CCCCTATCCTTTCCGCGTCCTTACTTCCCC
DNA 2: GGGGAAGTAAGGACGCGGAAAGGATAGGGG
For B2, the Kd in data set [4] turned out to be 29.7 ± 2.5 nM; in the data set with Ku70/80ΔC [5], 51 ± 7.7 nM. Also, the binding result with Ku70/Ku80 C493S and with Ku70/Ku80 C493A was “binds” in each case.
